Test results published in PMC6983407.

Columns and labels:
[1] = biological target: recombinant FIPV-UU4 S protein (ectodomain of the spike protein of serotype I feline infectious peritonitis virus strain UU4, fused with the trimerization domain of T4 fibritin) (feline infectious peritonitis virus, serotype I, strain UU4 | bacteriophage T4); assay: native gel or EMSA
[2] = biological target: recombinant FIPV-UU4 S protein (ectodomain of the spike protein of serotype I feline infectious peritonitis virus strain UU4, fused with the trimerization domain of T4 fibritin) (feline infectious peritonitis virus, serotype I, strain UU4 | bacteriophage T4); assay: cryo-EM structure

Substance: recombinant FIPV-UU4 S protein (ectodomain of the spike protein of serotype I feline infectious peritonitis virus strain UU4, fused with the trimerization domain of T4 fibritin) (natural protein)
- stoichiometry N [1]: 3
- stoichiometry N [2]: 3
